Test results published in patent US20110150870A1 (UNITED STATES OF AMERICA AS REPRESENTED BY TH, published 2011).

B1: KYK-2.0 Fab (Fab, V domains shown)
VH: QVQLVESGGGLVKPGGSLRLSCAASGFTFSSYGMHWVRQAPGKGLEWVAFIRYDGSNKYYADSVKGRFTISRDNSKNTKYLQMNSLRAEDTAVYYCAKDRGLGDGTYFDYWGQGTTVTVSS
VL: QSALTQPASVSGSPGQSITISCSGSSSNIGNNAVNWYQQLPGKAPKLLIYYDDLLPSGVSDRFSGSKSGTSAFLAISGLQSEDEADYYCAAWDDSLNGPVFGGGTKLTVL
notes: Human Fab (lambda) with human constant domains and a C-terminal (His)6 tag, expressed in E. coli from pC3C-His and purified by IMAC
B2: KYK-1.0 Fab (Fab, V domains shown)
VH: EVQLVESGGGVVQPGGSLRLSCAASGFTFSSYGMHWVRQAPGKGLEWVAFIRYDGSNKYYADSVKGRFTISRDNSKNTKYLQMNSLRAEDTAVYYCAKDRFGYYLDYWGQGTLVTVSS
VL: QPVLTQPSSVSVAPGETARIPCGGDDIETKSVHWYQQKPGQAPVLVIYDDDDRPSGIPERFFGSNSGNTATLSISRVEAGDEADYYCQVWDDNNDEWVFGGGTQLTVL
notes: Human Fab with human constant domains (lambda light chain) and a C-terminal (His)6 tag, expressed in E. coli from pC3C-His and purified by IMAC

Molecular target: T1, tetanus toxoid (UniProt P04958 2-1315)
T1 construct: also called TT
Assay: ELISA, 100 ng protein coated per well, anti-human Fab-HRP detection

T1 sequence (P04958 2-457 limits assumed, chain 1 of 2): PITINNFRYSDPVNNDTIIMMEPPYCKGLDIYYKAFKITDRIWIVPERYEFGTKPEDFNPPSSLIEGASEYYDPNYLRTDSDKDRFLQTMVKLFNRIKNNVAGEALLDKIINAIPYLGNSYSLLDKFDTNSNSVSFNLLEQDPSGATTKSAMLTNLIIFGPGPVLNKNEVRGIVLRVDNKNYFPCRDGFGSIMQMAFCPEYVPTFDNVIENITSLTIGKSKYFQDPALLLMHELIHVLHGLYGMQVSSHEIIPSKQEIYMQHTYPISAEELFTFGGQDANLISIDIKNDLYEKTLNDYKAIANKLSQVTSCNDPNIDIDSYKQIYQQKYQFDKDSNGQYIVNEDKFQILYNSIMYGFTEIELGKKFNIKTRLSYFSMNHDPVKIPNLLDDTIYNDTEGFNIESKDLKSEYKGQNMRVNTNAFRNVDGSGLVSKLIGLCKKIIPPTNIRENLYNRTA
T1 sequence (P04958 458-1315 limits assumed, chain 2 of 2): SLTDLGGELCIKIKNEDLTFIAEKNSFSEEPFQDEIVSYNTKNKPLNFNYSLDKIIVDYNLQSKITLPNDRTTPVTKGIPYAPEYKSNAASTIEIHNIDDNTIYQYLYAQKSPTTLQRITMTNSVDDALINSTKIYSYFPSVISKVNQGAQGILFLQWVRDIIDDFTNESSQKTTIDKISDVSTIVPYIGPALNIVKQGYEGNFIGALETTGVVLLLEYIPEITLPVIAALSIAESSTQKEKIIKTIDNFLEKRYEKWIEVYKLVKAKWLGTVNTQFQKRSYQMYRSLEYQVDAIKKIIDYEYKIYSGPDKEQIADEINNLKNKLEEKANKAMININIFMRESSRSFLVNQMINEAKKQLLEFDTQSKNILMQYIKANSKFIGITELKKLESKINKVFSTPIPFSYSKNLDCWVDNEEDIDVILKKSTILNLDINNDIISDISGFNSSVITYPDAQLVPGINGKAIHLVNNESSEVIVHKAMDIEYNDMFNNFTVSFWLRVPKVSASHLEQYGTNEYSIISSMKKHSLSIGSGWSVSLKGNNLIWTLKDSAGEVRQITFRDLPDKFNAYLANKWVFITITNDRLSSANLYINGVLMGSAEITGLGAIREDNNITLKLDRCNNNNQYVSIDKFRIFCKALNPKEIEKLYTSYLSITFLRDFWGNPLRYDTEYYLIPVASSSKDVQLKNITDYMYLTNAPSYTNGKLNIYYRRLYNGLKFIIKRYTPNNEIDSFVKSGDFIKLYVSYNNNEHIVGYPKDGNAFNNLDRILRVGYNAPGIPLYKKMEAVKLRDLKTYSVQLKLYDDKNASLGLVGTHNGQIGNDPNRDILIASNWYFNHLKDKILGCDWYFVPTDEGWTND

Binder	binding result
B1	no binding
B2	no binding
